From article PMC8565327, “A dominant-negative SOX18 mutant disrupts multiple regulatory layers essential to transcription factor activity” (Nucleic Acids Research, 2021)

T1: SOX7-eGFP, Q9BT81
T1 chain: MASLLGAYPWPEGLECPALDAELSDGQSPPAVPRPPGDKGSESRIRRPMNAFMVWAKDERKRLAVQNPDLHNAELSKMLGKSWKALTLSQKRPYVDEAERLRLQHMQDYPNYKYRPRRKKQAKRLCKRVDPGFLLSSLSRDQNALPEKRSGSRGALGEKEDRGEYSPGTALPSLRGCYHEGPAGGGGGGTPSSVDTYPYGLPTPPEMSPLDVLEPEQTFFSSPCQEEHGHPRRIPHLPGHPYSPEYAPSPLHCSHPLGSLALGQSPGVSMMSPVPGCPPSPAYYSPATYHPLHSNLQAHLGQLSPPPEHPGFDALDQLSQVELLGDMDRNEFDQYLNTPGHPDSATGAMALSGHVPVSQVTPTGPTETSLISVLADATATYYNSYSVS


What was measured:
SOX7-eGFP, Q9BT81 = target: T1, SOX7-eGFP, Q9BT81; assay: cross-raster image correlation spectroscopy (cRICS); living HeLa cell nuclei, 37°C, transiently transfected; two colours (JF549 + JF646 on HaloTag, eGFP + JF646, or snap646 + JF549); fraction of molecules that move together; conditions: other: cross-raster image correlation spectroscopy (cRICS)
[1] = target: the molecule itself; assay: number and brightness (N&B); living HeLa cell nuclei, 37°C; cells with low to medium expression, 1 μM JF549 Halo-tag dye; monomer brightness calibrated on HALO-SOX7

Protein | percent heterodimer (SOX7-eGFP, Q9BT81) | stoichiometry N [1]
HALO-SOX18 (protein) MQRSPPGYGAQDDPPSRRDCAWAPGIGAAAEARGLPVTNVSPTSPASPSSLPRSPPRSPESGRYGFGRGERQTADELRIRRPMNAFMVWAKDERKRLAQQNPDLHNAVLSKMLGKAWKELNTAEKRPFVEEAERLRVQHLRDHPNYKYRPRRKKQARKVRRLEPGLLLPGLVQPSAPPEAFAAASGSARSFRELPTLGAEFDGLGLPTPERSPLDGLEPGEASFFPPPLAPEDCALRAFRAPYAPELARDPSFCYGAPLAEALRTAPPAAPLAGLYYGTLGTPGPFPNPLSPPPESPSLEGTEQLEPTADLWADVDLTEFDQYLNCSRTRPDATTLPYHVALAKLGPRAMSCPEESSLISALSDASSAVYYSACISG | SOX7/SOX18 (18.5%) | –
HALO-SOX18 (natural protein, UniProt P43680 1-377, looked up, JF549 and/or JF646 Halo-tag dye on the HaloTag, SOX18 wild type from the plasmid pReceiver-M49(HaloTag-SOX18) of GeneCopoeia; In the functional row with MEF2C the protein was untagged-SOX18 from the same plasmid without the HaloTag; also called HaloTag-SOX18; pReceiver-M49(HaloTag-SOX18); source: HeLa, transiently transfected, in living cells) MQRSPPGYGAQDDPPSRRDCAWAPGIGAAAEARGLPVTNVSPTSPASPSSLPRSPPRSPESGRYGFGRGERQTADELRIRRPMNAFMVWAKDERKRLAQQNPDLHNAVLSKMLGKAWKELNTAEKRPFVEEAERLRVQHLRDHPNYKYRPRRKKQARKVRRLEPGLLLPGLVQPSAPPEAFAAASGSARSFRELPTLGAEFDGLGLPTPERSPLDGLEPGEASFFPPPLAPEDCALRAFRAPYAPELARDPSFCYGAPLAEALRTAPPAAPLAGLYYGTLGTPGPFPNPLSPPPESPSLEGTEQLEPTADLWADVDLTEFDQYLNCSRTRPDATTLPYHVALAKLGPRAMSCPEESSLISALSDASSAVYYSACISG | – | 2
